# Test results from PMC4243253 (Biochemical Journal, 2014).
# B1: Bacillus anthracis kynurenine formamidase KynB (enzyme)
# chain: MKTSKWIDISQPLNNDIATWPGDTPFSYEVLWSKEESGSVNVGKLTMSIHTGTHIDAPFHFDNDGKKVLDLDIQVYVGPTRIIDVSNLESIGKKELEKFHLEGVERLLLRTSSHGKANEFPDIIPHLRADIAPFLSEKGIRLIGVDVPSVDPLDDKELAAHHQLFKHSIHILENVVLDHVADGDYELIALPLALSDADGSPVRAVIRPI
# notes: also called BaKynB; KFase
# Target: the molecule itself
# Assay: SEC
protein,measurement,value
B1,stoichiometry N,2
